Test results: patent US20060142192A1 (ZymoGenetics, published 2006)

How the values were obtained:
Test in all cases: flow cytometry, biotinylated IL-17C (1 ug/ml) + SA-PE on transiently transfected 293fb cells
human IL-17R = biological target: T1, human IL-17R (human, UniProt Q96F46 33-866)
T1 construct: whole, on cells
T1 sequence (looked up): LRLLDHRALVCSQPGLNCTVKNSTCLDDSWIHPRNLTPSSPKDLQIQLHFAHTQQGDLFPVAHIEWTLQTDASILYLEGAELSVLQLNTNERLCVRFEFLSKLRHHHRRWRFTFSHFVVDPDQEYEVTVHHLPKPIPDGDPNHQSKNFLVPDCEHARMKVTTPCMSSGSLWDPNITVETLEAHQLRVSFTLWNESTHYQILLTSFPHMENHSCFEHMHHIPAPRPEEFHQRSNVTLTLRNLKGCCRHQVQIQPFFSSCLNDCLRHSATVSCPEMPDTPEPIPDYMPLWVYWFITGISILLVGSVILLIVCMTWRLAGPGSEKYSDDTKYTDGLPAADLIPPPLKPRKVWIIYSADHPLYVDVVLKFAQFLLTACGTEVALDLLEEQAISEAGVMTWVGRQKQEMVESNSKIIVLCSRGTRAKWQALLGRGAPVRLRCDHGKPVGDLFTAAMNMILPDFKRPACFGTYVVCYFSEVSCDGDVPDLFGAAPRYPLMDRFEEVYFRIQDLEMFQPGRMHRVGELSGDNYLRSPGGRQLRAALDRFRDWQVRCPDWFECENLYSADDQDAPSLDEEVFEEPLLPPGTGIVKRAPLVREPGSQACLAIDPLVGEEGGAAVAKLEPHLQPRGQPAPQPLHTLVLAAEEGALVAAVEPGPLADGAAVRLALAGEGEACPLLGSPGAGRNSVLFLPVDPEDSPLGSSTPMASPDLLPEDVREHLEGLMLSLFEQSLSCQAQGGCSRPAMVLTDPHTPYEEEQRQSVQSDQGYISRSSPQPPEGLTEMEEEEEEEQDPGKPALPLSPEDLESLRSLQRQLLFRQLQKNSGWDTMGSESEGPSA
Protocol: (§1) 293fb cells that had been transfected with expression vectors encoding human ZcytoR21x1 and ZcytoR21x2 were assessed for their ability to bind biotinylated human IL-17C. Control transfections included 1) no DNA transfection, 2) vector only (pzmp11), and 3) human IL17R. 10⁶ cells were removed from transfected suspension cultures at day 1, day 2, day 3, and day 5. Cells were pelleted and resuspended in 100 ul of staining media (SM), which is HBSS plus 1 mg/ml bovine serum albumin (BSA), 10 mM Hepes, and 0.1% sodium azide (w/v). Biotinylated human IL-17C was incubated with the cells on ice for 45 minutes at a concentration of 1 ug/ml. An APC conjugated anti-human CD8 antibody (BD Pharmingen; cat.#555369) was also added at 1:25 dilution. After 30 minutes, excess cytokine and antibody was washed away with SM and the cells were incubated with a 1:100 dilution of streptavidin conjugated to phycoerythrin (SA-PE; BD Pharmingen; cat# 554061) for 30 minutes on ice. Excess SA-PE was washed away and cells were analyzed by flow cytometry.
(§2) The amount of cytokine binding was detected from the change in the mean fluorescence intensity of the cytokine staining relative to negative controls —1) no DNA transfection and 2) vector only. […] Binding was also seen to human IL-17R.

human ZcytoR21x1 = biological target: T2, human ZcytoR21x1 (human, UniProt Q8NFR9 24-667)
T2 construct: also called hcytor21x1; IL-17RE
T2 sequence: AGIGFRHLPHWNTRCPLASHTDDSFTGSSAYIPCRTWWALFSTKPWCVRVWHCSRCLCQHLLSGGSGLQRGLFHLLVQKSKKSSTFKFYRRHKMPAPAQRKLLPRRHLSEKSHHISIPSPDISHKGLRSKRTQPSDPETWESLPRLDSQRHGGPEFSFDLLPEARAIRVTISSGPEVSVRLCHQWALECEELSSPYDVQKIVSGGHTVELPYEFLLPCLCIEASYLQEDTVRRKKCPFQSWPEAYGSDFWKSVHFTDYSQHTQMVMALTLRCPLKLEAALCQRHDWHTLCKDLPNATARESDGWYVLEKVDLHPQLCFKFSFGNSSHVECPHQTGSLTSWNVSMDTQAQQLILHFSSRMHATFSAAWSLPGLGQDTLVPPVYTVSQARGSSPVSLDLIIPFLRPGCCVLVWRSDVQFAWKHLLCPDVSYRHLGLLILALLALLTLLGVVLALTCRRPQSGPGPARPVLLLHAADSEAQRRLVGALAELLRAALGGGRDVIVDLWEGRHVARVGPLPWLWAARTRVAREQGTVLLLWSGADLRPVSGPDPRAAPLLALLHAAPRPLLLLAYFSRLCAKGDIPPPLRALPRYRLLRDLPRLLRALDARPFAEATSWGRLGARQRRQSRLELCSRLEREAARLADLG
Protocol: as §1, §2

human ZcytoR21x2 = biological target: T3, human ZcytoR21x2 (human, UniProt Q8NFR9 24-667)
T3 construct: also called hcytor21x2
T3 sequence: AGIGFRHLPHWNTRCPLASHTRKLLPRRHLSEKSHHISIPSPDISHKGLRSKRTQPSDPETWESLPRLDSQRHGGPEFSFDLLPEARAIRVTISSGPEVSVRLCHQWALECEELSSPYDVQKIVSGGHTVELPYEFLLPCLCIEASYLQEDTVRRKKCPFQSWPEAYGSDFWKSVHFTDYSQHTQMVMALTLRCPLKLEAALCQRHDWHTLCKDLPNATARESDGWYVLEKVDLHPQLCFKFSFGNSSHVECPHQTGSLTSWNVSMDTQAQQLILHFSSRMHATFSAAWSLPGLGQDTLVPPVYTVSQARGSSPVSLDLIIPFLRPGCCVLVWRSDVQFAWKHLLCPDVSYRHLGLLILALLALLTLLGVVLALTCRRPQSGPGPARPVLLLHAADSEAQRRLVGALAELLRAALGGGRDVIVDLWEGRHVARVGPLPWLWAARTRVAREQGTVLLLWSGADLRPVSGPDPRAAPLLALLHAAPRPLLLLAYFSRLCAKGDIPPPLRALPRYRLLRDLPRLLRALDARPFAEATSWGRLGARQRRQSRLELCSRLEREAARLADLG
Protocol: as §1, §2

Measured: binding result

B1: human IL-17C (ligand)
chain: HHDPSLRGHPHSHGTPHCYSAEELPLGQAPPHLLARGAKWGQALPVALVSSLEAASHRGRHERPSATTQCPVLRPEEVLEADTHQRSISPWRYRVDTDEDRYPQKLAFAECLCRGCIDARTGRETAALNSVRLLQSLLVLRRRPCSRDGSGLPTPGAFAFHTEFIHVPVGCTCVLPRSV
modifications: biotin label in the binding assays (sites not given); unlabelled in the signalling assays
notes: it is the last residue of the open reading frame as I know it; Recombinant forms made carried a C-terminal Glu-Glu tag (BHK) or His tag (293F); also called biotinylated human IL-17C; human IL-17C (A903G)
binds: all assays above
